# Numbering of substitutions follows the chain as printed.
# T1: recombinant cyno IL1RAP ECD (cynomolgus monkey, UniProt P59822 21-367 (rhesus entry))
# T1 construct: also called rcynoIL1RAP
# T1 sequence: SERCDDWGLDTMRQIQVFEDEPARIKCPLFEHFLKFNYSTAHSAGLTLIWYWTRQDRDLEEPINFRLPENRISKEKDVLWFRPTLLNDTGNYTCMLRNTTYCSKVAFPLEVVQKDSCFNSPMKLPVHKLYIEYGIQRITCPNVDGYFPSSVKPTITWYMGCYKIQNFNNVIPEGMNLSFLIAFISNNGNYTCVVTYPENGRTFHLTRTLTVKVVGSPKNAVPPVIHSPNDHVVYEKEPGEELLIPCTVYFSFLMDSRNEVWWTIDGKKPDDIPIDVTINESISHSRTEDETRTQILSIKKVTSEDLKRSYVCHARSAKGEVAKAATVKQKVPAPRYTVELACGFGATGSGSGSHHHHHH
# T2: recombinant human IL1RAP ECD (human, UniProt Q9NPH3 21-367)
# T2 construct: His-tagged; also called hIL1RAP-ECD; rhuIL1RAP
# T2 sequence: T1 sequence with F183L, P273T, T326K
# T3: human IL1RAP on cells (endogenous) (human, UniProt Q9NPH3 21-570)
# T3 sequence (looked up): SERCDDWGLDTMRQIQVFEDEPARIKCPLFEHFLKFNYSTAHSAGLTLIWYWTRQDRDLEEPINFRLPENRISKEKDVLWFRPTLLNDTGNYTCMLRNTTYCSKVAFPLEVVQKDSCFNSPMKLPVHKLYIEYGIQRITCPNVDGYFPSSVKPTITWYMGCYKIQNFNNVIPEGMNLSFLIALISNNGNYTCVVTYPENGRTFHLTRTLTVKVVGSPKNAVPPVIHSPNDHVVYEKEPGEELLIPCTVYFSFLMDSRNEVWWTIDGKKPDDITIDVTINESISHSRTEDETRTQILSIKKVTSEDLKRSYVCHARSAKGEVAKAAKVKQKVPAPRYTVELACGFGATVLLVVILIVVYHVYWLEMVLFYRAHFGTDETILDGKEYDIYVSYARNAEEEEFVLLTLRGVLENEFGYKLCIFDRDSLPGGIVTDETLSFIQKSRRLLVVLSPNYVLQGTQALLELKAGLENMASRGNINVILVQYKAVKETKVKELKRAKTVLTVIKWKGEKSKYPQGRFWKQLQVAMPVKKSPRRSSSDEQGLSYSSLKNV
# T4: cyno IL1RAP ECD displayed on HEK-293F cells (pDisplay) (cynomolgus monkey, UniProt P59822 21-367 (rhesus entry))
# T4 sequence: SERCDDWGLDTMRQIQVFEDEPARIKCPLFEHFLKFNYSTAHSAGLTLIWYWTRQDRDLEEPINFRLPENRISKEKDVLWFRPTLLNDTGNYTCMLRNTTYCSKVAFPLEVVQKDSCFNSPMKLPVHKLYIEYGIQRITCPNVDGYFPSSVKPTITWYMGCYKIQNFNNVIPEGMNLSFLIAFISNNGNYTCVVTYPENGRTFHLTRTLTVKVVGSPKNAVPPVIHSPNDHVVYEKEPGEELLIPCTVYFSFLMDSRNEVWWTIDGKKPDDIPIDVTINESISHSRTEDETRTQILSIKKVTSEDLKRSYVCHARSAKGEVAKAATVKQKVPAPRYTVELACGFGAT
# B1: IC3B3 (bispecific antibody, human IgG4 S228P, kappa, lambda, F234A L235A)
# heavy 1: EVQLVESGGGLVQPGGSLKLSCAASGFTFNTYAMNWVRQASGKGLEWVGRIRSKYNAYATYYAASVKGRFTISRDDSKNTAYLQMNSLKTEDTAVYYCTRHGNFGNSYVSWFAYWGQGTLVTVSSASTKGPSVFPLAPCSRSTSESTAALGCLVKDYFPEPVTVSWNSGALTSGVHTFPAVLQSSGLYSLSSVVTVPSSSLGTKTYTCNVDHKPSNTKVDKRVESKYGPPCPPCPAPEAAGGPSVFLFPPKPKDTLMISRTPEVTCVVVDVSQEDPEVQFNWYVDGVEVHNAKTKPREEQFNSTYRVVSVLTVLHQDWLNGKEYKCKVSNKGLPSSIEKTISKAKGQPREPQVYTLPPSQEEMTKNQVSLTCLVKGFYPSDIAVEWESNGQPENNYKTTPPVLDSDGSFLLYSKLTVDKSRWQEGNVFSCSVMHEALHNHYTQKSLSLSLGK
# light 1: QAVVTQEPSLTVSPGGTVTLTCRSSTGAVTTSNYANWVQQKPGQAPRGLIGGTNKRAPGTPARFSGSLLGGKAALTLSGAQPEDEAEYYCALWYSNLWVFGGGTKLTVLGQPKAAPSVTLFPPSSEELQANKATLVCLISDFYPGAVTVAWKADSSPVKAGVETTTPSKQSNNKYAASSYLSLTPEQWKSHRSYSCQVTHEGSTVEKTVAPTECS
# heavy 2: not shown
# light 2: DIQLTQSPSFLSASVGDRVTITCRASQGISSYLAWYQQKPGKAPKLLIYAASTLQSGVPSRFSGSGSGTEFTLTISSLQPEDFATYYCQQVNSYPLTFGGGTKVEIKRTVAAPSVFIFPPSDEQLKSGTASVVCLLNNFYPREAKVQWKVDNALQSGNSQESVTEQDSKDSTYSLSSTLTLSKADYEKHKVYACEVTHQGLSSPVTKSFNRGEC
# notes: IgG4-PAA, Fab arm exchange; also called IAPB57 x CD3B220
# B2: IC3B6 (bispecific antibody, human IgG4 S228P, kappa, lambda, F234A L235A)
# heavy 1: B1 heavy 1
# light 1: B1 light 1
# heavy 2: not shown
# light 2: not shown
# notes: IgG4-PAA, Fab arm exchange; also called IAPB3 x CD3B220
# B3: IC3B15 (bispecific antibody, human IgG4 S228P, kappa, lambda, F234A L235A)
# heavy 1: B1 heavy 1
# light 1: B1 light 1
# heavy 2: not shown
# light 2: not shown
# notes: IgG4-PAA, Fab arm exchange; also called IAPB65 x CD3B220
# B4: IAPB23 (antibody, human IgG4 S228P, kappa, F234A L235A, V domains shown)
# VH: EVQLLESGGGLVQPGGSLRLSCAASGFTFSNYWMNWVRQAPGKGLEWVSAIRYDGGSKYYADSVKGRFTISRDNSKNTLYLQMNSLRAEDTAVYYCAKDAYPPYSFDYWGQGTLVTVSS
# VL: EIVLTQSPATLSLSPGERATLSCRASQSVSSYLAWYQQKPGQAPRLLIYDASNRATGIPARFSGSGSGTDFTLTISSLEPEDFAVYYCQQRSNWPLTFGQGTKVEIKR
# notes: IgG4-PAA; whole chains
# B5: IAPB03 (antibody, human IgG4 S228P, kappa, F234A L235A, V domains shown)
# VH: QVQLVQSGAEVKKPGSSVKVSCKASGGTFSSYAISWVRQAPGQGLEWMGGISAIFGTANYAQKFQGRVTITADESTSTAYMELSSLRSEDTAVYYCARGNSFHALWDYAFDYWGQGTLVTVSS
# VL: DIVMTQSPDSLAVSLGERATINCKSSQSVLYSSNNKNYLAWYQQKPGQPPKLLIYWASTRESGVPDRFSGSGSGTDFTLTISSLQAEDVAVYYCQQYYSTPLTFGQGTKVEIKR
# notes: IgG4-PAA; the entries called VH/VL are whole chains; also called IAPB3
# B6: IAPB55 (antibody, human IgG4 S228P, kappa, F234A L235A, V domains shown)
# VH: QLQLQESGPGLVKPSETLSLTCTVSGVSISSSTYYWGWLRQPPGMGLEWTGSIYFTGNTYYNPSLKSRVTISVDTSRNQFSLKLSSVTAADTAVYYCGSLFGDYGYFDYWGQGTLVTVSS
# VL: EIVMTQSPATLSVSPGERATLSCRASQFISSNLAWYQQKPGQAPRLLIYGASTRATGIPARFSGSGSGTDFTLTISSLQSEDFAVYYCQQYNNWPFTFGPGTKVDIKR
# notes: IgG4-PAA; whole chains
# B7: IAPB61 (antibody, human IgG4 S228P, kappa, F234A L235A, V domains shown)
# VH: B6 VH
# VL: B6 VL with S14P, F96S
# notes: IgG4-PAA; whole chains
# Target: T1, recombinant cyno IL1RAP ECD
# Test: SPR
Kd,koff,kon,Binder
0.0861 nM,8.2e-05 s⁻¹,952000 M⁻¹ s⁻¹,B1
2.99 nM,0.00054 s⁻¹,180000 M⁻¹ s⁻¹,B2
9.08 nM,0.00344 s⁻¹,379000 M⁻¹ s⁻¹,B3

# Target: T2, recombinant human IL1RAP ECD
# Test: SPR (ProteOn)
# Protocol: The rates of IL1RAP ECD association and dissociation were measured for each variant. The biosensor surface was prepared by covalently coupling Goat anti-Human IgG (Fc) to the surface of a GLC chip (BioRad) using the manufacturer instructions for amine-coupling chemistry. […] The RU immobilized also included a goat anti-mouse Fc antibody that was added to capture other antibodies not included in the ones reported here. Since the mixture was 1:1 about 50% of these RU immobilized are expected to be goat anti-human Fc. The kinetic experiments were performed at 25° C. in running buffer (PBS pH 7.4, 0.005% P20, 3 mM EDTA). […] (1:3) serial dilutions of human IL1RAP ECD, starting at 400 nM were prepared in running buffer. […] The reference spots (Goat anti-Human IgG (Fc)-modified surface) containing no candidate captured were used as a reference surface. Capture of mAb was followed by a 3 minute injection (association phase) of antigen at 40 μL/min, followed by 10 minutes of buffer flow (dissociation phase). […] Data was processed on the instrument software. Double reference subtraction of the data was performed by subtracting the curves generated by buffer injection from the reference-subtracted curves for analyte injections. Kinetic analysis of the data was performed using 1:1 Langmuir binding model with group fit.
Kd,koff,kon,Binder
4.7 nM,0.00149 s⁻¹,317000 M⁻¹ s⁻¹,B4
2.64 nM,0.000357 s⁻¹,135000 M⁻¹ s⁻¹,B5

# Target: T3, human IL1RAP on cells (endogenous)
# Test: cell-based or functional assay
row,Binder,"EC50, T-cell mediated cytotoxicity"
1,B1,0.131 nM
2,B2,0.49 nM
3,B3,0.94 nM

# Target: T2, recombinant human IL1RAP ECD
# Test: SPR
Kd,koff,kon,Binder
0.034 nM,2.98e-05 s⁻¹,875000 M⁻¹ s⁻¹,B1
2.29 nM,0.000381 s⁻¹,167000 M⁻¹ s⁻¹,B2
11.5 nM,0.00395 s⁻¹,343000 M⁻¹ s⁻¹,B3

# Target: T4, cyno IL1RAP ECD displayed on HEK-293F …
# Test: HEK-293F cells (MSD)
row,binding result,Binder
1,binds,B6
2,binds,B7
3,binds,B4
4,binds,B5

# Target: T1, recombinant cyno IL1RAP ECD
# Test: SPR
# Remark: another data set of the same source
row,Kd,Binder
1,0.0861 nM,B1
2,2.99 nM,B2
3,9.08 nM,B3

# Target: T2, recombinant human IL1RAP ECD
# Test: SPR
# Remark: another data set of the same source
row,Kd,Binder
1,0.034 nM,B1
2,2.29 nM,B2
3,11.5 nM,B3

# Target: T2, recombinant human IL1RAP ECD
# Test: SPR, summary
row,Kd,Binder
1,1.64 nM,B6
2,17.5 nM,B7
3,4.7 nM,B4
4,2.64 nM,B5

# Target: T1, recombinant cyno IL1RAP ECD
# Test: SPR, summary
row,Kd,Binder
1,0.086 nM,B1
2,2.99 nM,B2
3,9.08 nM,B3

# Target: T2, recombinant human IL1RAP ECD
# Test: SPR, summary
# Remark: another data set of the same source
row,Kd,Binder
1,0.034 nM,B1
2,2.29 nM,B2
3,11.5 nM,B3

# Target: T2, recombinant human IL1RAP ECD
# Test: SPR; human KD over cyno KD
row,Hu/Cyno KD Ratio,Binder
1,0.4,B1
2,0.8,B2
3,1.3,B3

# Target: T1, recombinant cyno IL1RAP ECD
# Test: recombinant protein
row,binding result,Binder
1,binds,B6
2,binds,B7
3,binds,B4
4,binds,B5
